Test results as given in patent publication US20230381333A1 (HANMI PHARM, published 2023).
Bridge positions count the residues as written; N and C are the ends. Square brackets hold non-standard residues; d marks the D form. Ends that are not written are not given here. * marks the point of attachment. Acetyl(2-(4-imidazolyl)) = O=C(Cc1c[nH]cn1)*; Aib = CC(C)(N)C(=O)O

T1: human GIP receptor (human, UniProt P48546 22-466)
T1 sequence (looked up): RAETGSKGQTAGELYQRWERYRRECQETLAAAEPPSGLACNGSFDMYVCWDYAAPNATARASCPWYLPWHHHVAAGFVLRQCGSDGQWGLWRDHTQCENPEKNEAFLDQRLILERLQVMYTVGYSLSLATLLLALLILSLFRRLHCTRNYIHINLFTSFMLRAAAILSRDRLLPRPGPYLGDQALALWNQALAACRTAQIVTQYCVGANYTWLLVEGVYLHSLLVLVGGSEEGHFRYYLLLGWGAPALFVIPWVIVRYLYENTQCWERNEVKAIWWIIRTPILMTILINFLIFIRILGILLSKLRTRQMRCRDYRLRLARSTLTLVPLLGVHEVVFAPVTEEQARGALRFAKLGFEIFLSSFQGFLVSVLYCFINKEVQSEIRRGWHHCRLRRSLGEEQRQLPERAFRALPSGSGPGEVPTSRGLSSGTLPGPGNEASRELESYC


Key:
Assay in all cases: cell-based or functional assay
[1] = target: T1, human GIP receptor
[2] = target: human GLP-1 receptor (human, UniProt P43220 24-463)
[3] = target: human GCG receptor (human, UniProt P47871 26-477)
Sequence of human GCG receptor (P47871 26-477): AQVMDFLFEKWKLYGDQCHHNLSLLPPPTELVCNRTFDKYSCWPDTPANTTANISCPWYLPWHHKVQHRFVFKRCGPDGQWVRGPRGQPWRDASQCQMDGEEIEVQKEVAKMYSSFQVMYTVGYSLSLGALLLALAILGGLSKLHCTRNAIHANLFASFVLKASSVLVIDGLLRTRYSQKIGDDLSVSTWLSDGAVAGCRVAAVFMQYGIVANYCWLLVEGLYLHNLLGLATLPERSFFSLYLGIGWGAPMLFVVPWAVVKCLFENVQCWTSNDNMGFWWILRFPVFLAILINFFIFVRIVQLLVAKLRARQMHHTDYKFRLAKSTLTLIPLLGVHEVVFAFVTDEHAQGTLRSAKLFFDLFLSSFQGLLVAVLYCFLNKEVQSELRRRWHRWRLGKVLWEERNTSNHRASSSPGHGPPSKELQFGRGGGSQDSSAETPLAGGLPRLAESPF

Binder | In vitro activity compared to native-type peptide (%), vs GIP [1] | In vitro activity compared to native-type peptide (%), vs GLP-1 [2] | In vitro activity compared to native-type peptide (%), vs Glucagon [3]
Y[Aib]QGTFTSDYSKYLDECAAKDFVQWLLDHHPSSGQPPPS (also: ring formation (underlined residues), positions not given here) [triple agonist of SEQ ID NO: 67] | 39.8% | 28.5% | 46.2%
{Acetyl(2-(4-imidazolyl))}-[Aib]QGTFTSDYSIAMDEKHCKDFVNWLLNTK (bridge 15-19) [triple agonist of SEQ ID NO: 60] | 8.2% | 106% | < 0.1%
Y[Aib]QGTFTSDYSKCLDERAAKEFVQWLLDHHPSSGQPPPS (bridge 16-20) [triple agonist of SEQ ID NO: 69] | 62.8% | 24.3% | 9.6%
{Acetyl(2-(4-imidazolyl))}-[Aib]QGTFTSDYSIAMDEIACKDFVNWLLNTK (bridge 15-19) [triple agonist of SEQ ID NO: 61] | 2.8% | 59.8% | < 0.1%
Y[Aib]QGTFTSDYSKYLDECAAKEFVQWLLDHHPSSGQPPPS (bridge 16-20) [triple agonist of SEQ ID NO: 64] | 92.9% | 64.6% | 60.1%
Y[Aib]QGTFTSDYSKCLDEKRAKDFVQWLLDHHPSSGQPPPS (bridge 16-20) [triple agonist of SEQ ID NO: 70] | 64.4% | 15.1% | 71.3%
Y[Aib]QGTFTSDYSKCLDEKAAKEFVQWLLDHHPSSGQPPPS (bridge 16-20) [triple agonist of SEQ ID NO: 68] | 107% | 27.9% | 8.8%
H[Aib]QGTFTSDVSKYLDGQAAKEFVAWLLKGC [triple agonist of SEQ ID NO: 7] | < 0.1% | 13.7% | < 0.1%
{Acetyl(2-(4-imidazolyl))}-[Aib]QGTFTSDKSKYLDERAAQDFVQWLLDGGPSSGAPPPS [triple agonist of SEQ ID NO: 62] | < 0.1% | 5.2% | < 0.1%
H[Aib]QGTFTSDYSKCLDEKRAKEFVQWLLDHHPSSGQPPPS (bridge 16-20) [triple agonist of SEQ ID NO: 65] | 11.6% | 95.4% | 25.2%
Y[Aib]QGTFTSDYSKYLDECRAKDFVQWLLDHHPSSGQPPPS (bridge 16-20) [triple agonist of SEQ ID NO: 66] | 17.2% | 15.8% | 172%
{Acetyl(2-(4-imidazolyl))}-[Aib]QGTFTSDCSKYLDERAAQDFVQWLLDGGPSSGAPPPS [triple agonist of SEQ ID NO: 63] | < 0.1% | 15.3% | < 0.1%
